Source: US20180362604A1

Columns and labels:
Activin A = Activin A (UniProt P08476); test: cell-based or functional assay
Myostatin [1] = target: Myostatin (UniProt O14793); test: cell-based or functional assay
FcRn receptor [2] = test: SPR
Myostatin [3] = target: Myostatin (UniProt O14793); test: SPR
FcRn receptor [4] = test: FcRn binding, 'standard methods'
Myostatin [5] = target: Myostatin (UniProt O14793); test: SPR (BIAcore), anti-human Fc capture, myostatin as analyte

Myostatin, sequence (O14793 267-375 limits assumed): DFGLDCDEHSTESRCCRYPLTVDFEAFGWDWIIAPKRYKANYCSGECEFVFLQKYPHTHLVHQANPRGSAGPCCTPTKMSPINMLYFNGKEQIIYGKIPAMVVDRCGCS
Activin A, sequence (P08476 311-426): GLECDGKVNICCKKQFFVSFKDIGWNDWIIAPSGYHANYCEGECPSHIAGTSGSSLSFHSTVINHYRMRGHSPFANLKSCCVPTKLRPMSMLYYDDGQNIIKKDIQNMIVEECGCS

Activin A IC50, cell-based assay for SMAD pathway (A204 luciferase reporter) (Activin A) | Myostatin IC50, cell-based assay for SMAD pathway (A204 luciferase reporter) (Myostatin [1]) | Kd (FcRn receptor [2]) | Kd (Myostatin [3]) | Kd (FcRn receptor [4]) | Kd (Myostatin [5]) | Substance
1000 pM | 400 pM |  |  |  |  | FS315K(81,82,84)E-hFcLALA (Fc fusion)
600 pM | 500 pM |  |  |  |  | FS315R78E/K(82,84)E-hFcLALA (Fc fusion)
 | 400 pM | 48000 pM | 17.4 pM | 372000 pM |  | FS315ΔHBS-hFcLALA (Fc fusion)
 |  |  |  | 36700 pM | 3.3 pM | monoFS315ΔHBS-hFcLALA (Fc fusion)
